Test results as given in US20140105889A1 (published 2014).
Changes are numbered by the printed parent chain. Numbers in names are those of the source.

T1: human FcγRIIb (human, UniProt P31994 43-217)
T1 construct: also called FcgRIIb; FcγIIB
T1 sequence: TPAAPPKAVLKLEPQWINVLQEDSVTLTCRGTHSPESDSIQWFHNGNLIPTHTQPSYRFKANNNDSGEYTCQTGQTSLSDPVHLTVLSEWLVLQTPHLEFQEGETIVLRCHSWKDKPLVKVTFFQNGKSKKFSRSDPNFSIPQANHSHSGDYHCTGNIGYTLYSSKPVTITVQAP

T2: human FcγRIIa type H (human, UniProt P12318 36-217)
T2 construct: also called FcgRIIaH; FcγRIIa(H)
T2 sequence: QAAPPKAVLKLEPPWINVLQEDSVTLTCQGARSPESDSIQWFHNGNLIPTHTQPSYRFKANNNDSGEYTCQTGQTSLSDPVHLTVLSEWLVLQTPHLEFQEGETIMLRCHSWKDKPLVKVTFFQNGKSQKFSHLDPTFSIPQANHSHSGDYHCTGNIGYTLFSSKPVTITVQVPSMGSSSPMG

T3: human FcγRIIa type R (human, UniProt P12318 36-217)
T3 construct: also called FcgRIIaR; FcγRIIa(R)
T3 chain: T2 sequence with H133R

B1: GpH7-B3 Q295D / GpL16-k0 (antibody, human IgG1)
heavy: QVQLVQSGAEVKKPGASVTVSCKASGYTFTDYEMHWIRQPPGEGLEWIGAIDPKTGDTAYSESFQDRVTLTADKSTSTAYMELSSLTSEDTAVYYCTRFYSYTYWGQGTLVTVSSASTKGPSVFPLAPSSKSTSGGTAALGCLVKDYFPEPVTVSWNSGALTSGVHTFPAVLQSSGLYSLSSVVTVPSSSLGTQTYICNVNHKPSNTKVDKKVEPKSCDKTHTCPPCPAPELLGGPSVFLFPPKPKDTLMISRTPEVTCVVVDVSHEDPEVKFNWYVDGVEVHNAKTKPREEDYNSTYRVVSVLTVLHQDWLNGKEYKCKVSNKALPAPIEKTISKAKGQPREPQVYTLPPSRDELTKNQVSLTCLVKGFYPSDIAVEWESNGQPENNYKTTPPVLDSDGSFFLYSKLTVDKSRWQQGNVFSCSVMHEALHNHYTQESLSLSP
light: DIVMTQSPLSLPVTPGEPASISCQASESLVHSNRNTYLHWYLQKPGQSPQLLIYKVSNRFSGVPDRFSGSGSGTDFTLKISRVEAEDVGVYYCSQNTHVPPTFGQGTKVEIE
notes: B3 variant: anti-glypican-3 IgG1 (constant region B3 = G1d with K439E) with one substitution, EU numbering; also called B3 variant Q295D; copies: 2 + 2
B2: GpH7-B3 Y296R / GpL16-k0 (antibody, human IgG1)
heavy: not shown
light: B1 light
notes: B3 variant: anti-glypican-3 IgG1 (constant region B3 = G1d with K439E) with one substitution, EU numbering; also called B3 variant Y296R; copies: 2 + 2
B3: GpH7-B3 Y300P / GpL16-k0 (antibody, human IgG1)
heavy: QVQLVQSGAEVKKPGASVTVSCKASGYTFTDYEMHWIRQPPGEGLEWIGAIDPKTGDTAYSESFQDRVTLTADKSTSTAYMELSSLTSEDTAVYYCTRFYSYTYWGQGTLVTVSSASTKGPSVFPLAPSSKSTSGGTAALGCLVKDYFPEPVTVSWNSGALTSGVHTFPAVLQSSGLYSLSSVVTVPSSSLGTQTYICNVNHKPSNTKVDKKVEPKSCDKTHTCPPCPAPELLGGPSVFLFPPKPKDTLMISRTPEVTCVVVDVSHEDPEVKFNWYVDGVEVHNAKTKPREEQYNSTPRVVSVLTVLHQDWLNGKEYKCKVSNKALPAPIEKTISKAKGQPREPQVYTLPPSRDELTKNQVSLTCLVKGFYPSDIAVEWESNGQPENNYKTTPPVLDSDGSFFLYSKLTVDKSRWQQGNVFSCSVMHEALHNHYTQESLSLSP
light: B1 light
notes: B3 variant: anti-glypican-3 IgG1 (constant region B3 = G1d with K439E) with one substitution, EU numbering; also called B3 variant Y300P; copies: 2 + 2
B4: GpH7-B3 S298G / GpL16-k0 (antibody, human IgG1)
heavy: not shown
light: B1 light
notes: B3 variant: anti-glypican-3 IgG1 (constant region B3 = G1d with K439E) with one substitution, EU numbering; also called B3 variant S298G; copies: 2 + 2
B5: GpH7-B3 Q295Y / GpL16-k0 (antibody, human IgG1)
heavy: not shown
light: B1 light
notes: B3 variant: anti-glypican-3 IgG1 (constant region B3 = G1d with K439E) with one substitution, EU numbering; also called B3 variant Q295Y; copies: 2 + 2
B6: GpH7-B3 Q295H / GpL16-k0 (antibody, human IgG1)
heavy: not shown
light: B1 light
notes: B3 variant: anti-glypican-3 IgG1 (constant region B3 = G1d with K439E) with one substitution, EU numbering; also called B3 variant Q295H; copies: 2 + 2
B7: GpH7-B3 S298P / GpL16-k0 (antibody, human IgG1)
heavy: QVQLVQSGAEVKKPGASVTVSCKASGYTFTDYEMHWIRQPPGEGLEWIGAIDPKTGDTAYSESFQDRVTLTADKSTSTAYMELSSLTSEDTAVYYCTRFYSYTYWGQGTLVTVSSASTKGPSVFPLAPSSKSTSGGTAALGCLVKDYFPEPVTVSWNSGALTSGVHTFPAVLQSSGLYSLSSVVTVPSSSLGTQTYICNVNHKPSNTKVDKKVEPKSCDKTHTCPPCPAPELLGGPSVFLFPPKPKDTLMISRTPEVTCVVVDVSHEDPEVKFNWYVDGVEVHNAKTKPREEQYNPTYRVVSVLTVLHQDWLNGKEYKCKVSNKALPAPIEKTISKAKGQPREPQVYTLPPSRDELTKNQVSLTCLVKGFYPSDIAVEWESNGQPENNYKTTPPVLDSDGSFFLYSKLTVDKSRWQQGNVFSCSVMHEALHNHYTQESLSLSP
light: B1 light
notes: B3 variant: anti-glypican-3 IgG1 (constant region B3 = G1d with K439E) with one substitution, EU numbering; also called B3 variant S298P; copies: 2 + 2
B8: GpH7-B3 Q295W / GpL16-k0 (antibody, human IgG1)
heavy: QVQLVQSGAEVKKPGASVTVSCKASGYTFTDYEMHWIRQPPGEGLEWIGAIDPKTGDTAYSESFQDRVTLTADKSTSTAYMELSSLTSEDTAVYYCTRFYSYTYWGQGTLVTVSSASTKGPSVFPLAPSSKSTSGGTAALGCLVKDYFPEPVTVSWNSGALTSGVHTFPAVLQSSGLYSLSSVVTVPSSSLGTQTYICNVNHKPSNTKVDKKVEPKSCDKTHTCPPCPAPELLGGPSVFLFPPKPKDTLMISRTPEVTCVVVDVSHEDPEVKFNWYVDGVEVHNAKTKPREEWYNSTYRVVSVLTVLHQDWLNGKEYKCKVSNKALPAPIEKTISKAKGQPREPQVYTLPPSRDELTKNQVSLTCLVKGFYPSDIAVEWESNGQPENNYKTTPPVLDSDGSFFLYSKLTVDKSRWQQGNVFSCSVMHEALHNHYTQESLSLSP
light: B1 light
notes: B3 variant: anti-glypican-3 IgG1 (constant region B3 = G1d with K439E) with one substitution, EU numbering; also called B3 variant Q295W; copies: 2 + 2
B9: GpH7-B3 Q295G / GpL16-k0 (antibody, human IgG1)
heavy: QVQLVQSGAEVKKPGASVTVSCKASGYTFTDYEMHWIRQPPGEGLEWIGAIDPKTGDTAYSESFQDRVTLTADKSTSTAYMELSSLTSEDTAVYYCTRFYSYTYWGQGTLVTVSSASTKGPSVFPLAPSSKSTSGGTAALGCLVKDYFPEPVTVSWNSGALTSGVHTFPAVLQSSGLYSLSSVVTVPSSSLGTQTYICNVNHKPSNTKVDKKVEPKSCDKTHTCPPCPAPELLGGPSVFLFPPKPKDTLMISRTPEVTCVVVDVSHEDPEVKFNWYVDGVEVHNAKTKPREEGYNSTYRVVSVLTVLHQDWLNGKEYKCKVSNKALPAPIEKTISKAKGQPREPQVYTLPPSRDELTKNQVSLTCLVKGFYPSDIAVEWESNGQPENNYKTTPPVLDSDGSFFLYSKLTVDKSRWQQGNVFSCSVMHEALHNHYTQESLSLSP
light: B1 light
notes: B3 variant: anti-glypican-3 IgG1 (constant region B3 = G1d with K439E) with one substitution, EU numbering; also called B3 variant Q295G; copies: 2 + 2
B10: GpH7-B3 Q295S / GpL16-k0 (antibody, human IgG1)
heavy: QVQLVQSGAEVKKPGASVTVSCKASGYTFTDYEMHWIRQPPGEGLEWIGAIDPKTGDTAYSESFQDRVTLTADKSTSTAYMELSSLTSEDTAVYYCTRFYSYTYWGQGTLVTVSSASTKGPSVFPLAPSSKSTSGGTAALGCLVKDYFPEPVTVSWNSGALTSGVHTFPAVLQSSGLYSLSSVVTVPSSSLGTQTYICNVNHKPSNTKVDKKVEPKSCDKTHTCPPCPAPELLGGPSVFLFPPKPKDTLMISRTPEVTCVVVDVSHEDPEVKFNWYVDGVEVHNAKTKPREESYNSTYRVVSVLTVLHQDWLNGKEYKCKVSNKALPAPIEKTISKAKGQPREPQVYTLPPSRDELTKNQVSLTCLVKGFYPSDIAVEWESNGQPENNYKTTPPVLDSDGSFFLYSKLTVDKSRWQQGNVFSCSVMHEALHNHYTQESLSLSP
light: B1 light
notes: B3 variant: anti-glypican-3 IgG1 (constant region B3 = G1d with K439E) with one substitution, EU numbering; also called B3 variant Q295S; copies: 2 + 2
B11: GpH7-B3 Q295F / GpL16-k0 (antibody, human IgG1)
heavy: not shown
light: B1 light
notes: B3 variant: anti-glypican-3 IgG1 (constant region B3 = G1d with K439E) with one substitution, EU numbering; also called B3 variant Q295F; copies: 2 + 2
B12: GpH7-B3 S298Y / GpL16-k0 (antibody, human IgG1)
heavy: not shown
light: B1 light
notes: B3 variant: anti-glypican-3 IgG1 (constant region B3 = G1d with K439E) with one substitution, EU numbering; also called B3 variant S298Y; copies: 2 + 2
B13: GpH7-B3 S298W / GpL16-k0 (antibody, human IgG1)
heavy: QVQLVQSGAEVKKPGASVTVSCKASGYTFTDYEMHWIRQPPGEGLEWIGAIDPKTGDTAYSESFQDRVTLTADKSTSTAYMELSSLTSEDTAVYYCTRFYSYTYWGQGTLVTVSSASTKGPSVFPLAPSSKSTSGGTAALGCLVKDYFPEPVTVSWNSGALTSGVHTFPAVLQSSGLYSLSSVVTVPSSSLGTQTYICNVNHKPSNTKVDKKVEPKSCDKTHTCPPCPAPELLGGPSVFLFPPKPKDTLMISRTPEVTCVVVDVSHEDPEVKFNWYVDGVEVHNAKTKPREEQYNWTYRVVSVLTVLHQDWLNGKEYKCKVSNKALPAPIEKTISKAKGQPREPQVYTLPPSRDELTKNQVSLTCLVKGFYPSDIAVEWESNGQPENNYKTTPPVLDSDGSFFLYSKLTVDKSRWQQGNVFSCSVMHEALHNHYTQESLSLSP
light: B1 light
notes: B3 variant: anti-glypican-3 IgG1 (constant region B3 = G1d with K439E) with one substitution, EU numbering; also called B3 variant S298W; copies: 2 + 2
B14: GpH7-B3 Q295N / GpL16-k0 (antibody, human IgG1)
heavy: not shown
light: B1 light
notes: B3 variant: anti-glypican-3 IgG1 (constant region B3 = G1d with K439E) with one substitution, EU numbering; also called B3 variant Q295N; copies: 2 + 2
B15: GpH7-B3 S298R / GpL16-k0 (antibody, human IgG1)
heavy: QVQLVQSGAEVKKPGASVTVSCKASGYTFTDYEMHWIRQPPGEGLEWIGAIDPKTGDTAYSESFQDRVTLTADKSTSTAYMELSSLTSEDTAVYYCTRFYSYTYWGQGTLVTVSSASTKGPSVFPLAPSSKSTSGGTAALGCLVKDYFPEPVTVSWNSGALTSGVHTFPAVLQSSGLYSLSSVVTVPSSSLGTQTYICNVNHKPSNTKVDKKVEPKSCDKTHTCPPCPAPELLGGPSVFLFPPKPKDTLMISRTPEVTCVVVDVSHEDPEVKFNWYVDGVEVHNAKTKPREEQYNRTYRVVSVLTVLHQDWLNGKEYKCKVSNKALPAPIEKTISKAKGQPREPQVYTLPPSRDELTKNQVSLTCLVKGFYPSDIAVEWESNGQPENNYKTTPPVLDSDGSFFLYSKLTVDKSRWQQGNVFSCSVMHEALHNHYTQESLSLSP
light: B1 light
notes: B3 variant: anti-glypican-3 IgG1 (constant region B3 = G1d with K439E) with one substitution, EU numbering; also called B3 variant S298R; copies: 2 + 2
B16: GpH7-B3 Y296G / GpL16-k0 (antibody, human IgG1)
heavy: not shown
light: B1 light
notes: B3 variant: anti-glypican-3 IgG1 (constant region B3 = G1d with K439E) with one substitution, EU numbering; also called B3 variant Y296G; copies: 2 + 2
B17: GpH7-B3 Y296K / GpL16-k0 (antibody, human IgG1)
heavy: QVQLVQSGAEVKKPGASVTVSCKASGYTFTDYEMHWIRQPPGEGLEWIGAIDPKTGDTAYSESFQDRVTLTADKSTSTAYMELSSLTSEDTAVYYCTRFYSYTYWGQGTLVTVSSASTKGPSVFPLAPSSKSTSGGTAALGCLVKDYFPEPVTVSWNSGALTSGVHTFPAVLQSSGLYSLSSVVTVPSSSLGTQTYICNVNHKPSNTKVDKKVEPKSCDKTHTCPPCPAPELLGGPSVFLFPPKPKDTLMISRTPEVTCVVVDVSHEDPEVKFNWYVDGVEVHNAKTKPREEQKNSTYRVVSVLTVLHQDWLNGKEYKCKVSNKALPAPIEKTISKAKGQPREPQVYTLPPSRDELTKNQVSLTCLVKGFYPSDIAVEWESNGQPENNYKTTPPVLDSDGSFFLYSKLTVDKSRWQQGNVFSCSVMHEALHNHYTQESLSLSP
light: B1 light
notes: B3 variant: anti-glypican-3 IgG1 (constant region B3 = G1d with K439E) with one substitution, EU numbering; also called B3 variant Y296K; copies: 2 + 2
B18: GpH7-B3 Y300R / GpL16-k0 (antibody, human IgG1)
heavy: not shown
light: B1 light
notes: B3 variant: anti-glypican-3 IgG1 (constant region B3 = G1d with K439E) with one substitution, EU numbering; also called B3 variant Y300R; copies: 2 + 2
B19: GpH7-B3 S298K / GpL16-k0 (antibody, human IgG1)
heavy: not shown
light: B1 light
notes: B3 variant: anti-glypican-3 IgG1 (constant region B3 = G1d with K439E) with one substitution, EU numbering; also called B3 variant S298K; copies: 2 + 2
B20: GpH7-B3 Q295R / GpL16-k0 (antibody, human IgG1)
heavy: not shown
light: B1 light
notes: B3 variant: anti-glypican-3 IgG1 (constant region B3 = G1d with K439E) with one substitution, EU numbering; also called B3 variant Q295R; copies: 2 + 2
B21: IL6R-BP082/IL6R-L (antibody, human IgG1)
heavy: QVQLQESGPGLVKPSETLSLTCAVSGHSISHDHAWSWVRQPPGEGLEWIGFISYSGITNYNPSLQGRVTISRDNSKNTLYLQMNSLRAEDTAVYYCARSLARTTAMDYWGEGTLVTVSSASTKGPSVFPLAPSSKSTSGGTAALGCLVKDYFPEPVTVSWNSGALTSGVHTFPAVLQSSGLYSLSSVVTVPSSSLGTQTYICNVNHKPSNTKVDKKVEPKSCDKTHTCPPCPAPDLLGGDSVFLFPPKPKDTLMISRTPEVTCVVVDVSHEDPEVKFNWYVDGVEVHNAKTKPREEQYNSTYRVVSVLTVLHQDWLNGKEYKCKVSNKALPKPIEKTISKAKGQPREPQVYTLPPSRDELTKNQVSLTCLVKGFYPSDIAVEWESNGQPENNYKTTPPVLDSDGSFFLYSKLTVDKSRWQQGNVFSCSVMHEALHNHYTQESLSLSP
light: DIQMTQSPSSLSASVGDRVTITCRASQDISSYLNWYQQKPGKAPKLLIYYTSRLHSGVPSRFSGSGSGTDFTFTISSLQPEDIATYYCQQGNTLPYTFGQGTKVEIK
B22: IL6R-BP131/IL6R-L (antibody, human IgG1)
heavy: B21 heavy with G239D
light: B21 light
B23: IL6R-BP181/IL6R-L (antibody, human IgG1)
heavy: B21 heavy with P273G, K328A
light: B21 light
B24: IL6R-BP151/IL6R-L (antibody, human IgG1)
heavy: B21 heavy with L236Y, G239D, K328A, K332R
light: B21 light
B25: IL6R-BP176/IL6R-L (antibody, human IgG1)
heavy: B21 heavy with K328D
light: B21 light
B26: IL6R-BP152/IL6R-L (antibody, human IgG1)
heavy: B21 heavy with L236Y, G239D, Y298D, K328A, K332R
light: B21 light
B27: IL6R-BP146/IL6R-L (antibody, human IgG1)
heavy: B21 heavy with D235E, L236Y, G239D, K328A, K332A
light: B21 light
B28: IL6R-BP178/IL6R-L (antibody, human IgG1)
heavy: B21 heavy with G239D, P273G
light: B21 light
B29: IL6R-BP130/IL6R-L (antibody, human IgG1)
heavy: B21 heavy with V325M
light: B21 light

target: T4, human FcγRIIIa(F) (human, UniProt P08637 17-208, limits assumed); assay: SPR (Biacore), antibody captured, FcγR as analyte
T4 construct: also called FcgRIIIaF; FcγRIIIa allotype F158
T4 sequence (P08637 other isoform, or with tags, fused parts or gaps limits assumed): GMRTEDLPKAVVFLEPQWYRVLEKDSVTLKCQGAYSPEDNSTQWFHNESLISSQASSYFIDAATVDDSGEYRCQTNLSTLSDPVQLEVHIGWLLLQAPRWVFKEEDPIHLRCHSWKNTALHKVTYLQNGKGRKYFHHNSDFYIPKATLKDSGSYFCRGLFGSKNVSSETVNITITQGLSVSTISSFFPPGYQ
Experimental: Interaction between each modified antibody and Fcγ receptor prepared in the manner described above was analyzed using the Biacore T100 (GE Healthcare), Biacore T200 (GE Healthcare), Biacore A100 or Biacore 4000. HBS-EP+ (GE Healthcare) was used for the running buffer, and measurements were carried out at 25° C. The chips used were chips in which antigen peptides, Protein A (Thermo Scientific), Protein A/G (Thermo Scientific) or Protein L (ACTIGEN or BioVision) were immobilized on the Series S Sensor Chip CM5 (GE Healthcare) or Series S Sensor Chip CM4 (GE Healthcare) by amine coupling, or chips in which preliminarily biotinylated antigen peptides were allowed to interact and then immobilized on the Series S Sensor Chip SA (certified) (GE Healthcare). The target antibodies were captured on these sensor chips, Fcγ receptor diluted with the running buffer was allowed to interact, followed by measurement of the amount of bound antibody. The amounts bound were compared between antibodies. However, since the amount of Fcγ receptor bound depends on the amount of captured antibody, the values used for comparison were first corrected by dividing the amount of Fcγ receptor bound by the captured amount of each antibody. Through reaction with 10 mM glycine-HCl at pH 1.5, the sensor chips were regenerated by washing off antibody captured on the sensor chips and used repeatedly.
Binding strength was evaluated according to the following method based on the results of analyzing the interaction with each FcγR. […] That value was then further multiplied by 100, and the resulting value was used as an indicator of relative binding activity to each FcγR.

Row | relative binding activity (amount bound / amount bound by GpH7-B3/GpL16-k0 x100) | Binder
1 | 64 % of GpH7-B3/GpL16-k0 | B1
2 | 38 % of GpH7-B3/GpL16-k0 | B2
3 | -1 % of GpH7-B3/GpL16-k0 | B3
4 | 59 % of GpH7-B3/GpL16-k0 | B4
5 | 49 % of GpH7-B3/GpL16-k0 | B5
6 | 52 % of GpH7-B3/GpL16-k0 | B6
7 | 0 % of GpH7-B3/GpL16-k0 | B7
8 | 10 % of GpH7-B3/GpL16-k0 | B8
9 | 55 % of GpH7-B3/GpL16-k0 | B9
10 | 87 % of GpH7-B3/GpL16-k0 | B10
11 | 46 % of GpH7-B3/GpL16-k0 | B11
12 | 71 % of GpH7-B3/GpL16-k0 | B12
13 | 11 % of GpH7-B3/GpL16-k0 | B13
14 | 68 % of GpH7-B3/GpL16-k0 | B14
15 | 20 % of GpH7-B3/GpL16-k0 | B15
16 | 21 % of GpH7-B3/GpL16-k0 | B16
17 | 21 % of GpH7-B3/GpL16-k0 | B17
18 | 12 % of GpH7-B3/GpL16-k0 | B18
19 | 25 % of GpH7-B3/GpL16-k0 | B19
20 | 52 % of GpH7-B3/GpL16-k0 | B20

target: T5, human FcγRIIIa type V (human, UniProt P08637 17-208, limits assumed); assay: SPR (Biacore), FcγR over captured antibody; binding amount / that of IL6R-BF648/IL6R-L x100
T5 construct: Allotype V158 was used; also called FcgRIIIaV; FcγRIIIa(V)
T5 sequence (P08637 other isoform, or with tags, fused parts or gaps limits assumed): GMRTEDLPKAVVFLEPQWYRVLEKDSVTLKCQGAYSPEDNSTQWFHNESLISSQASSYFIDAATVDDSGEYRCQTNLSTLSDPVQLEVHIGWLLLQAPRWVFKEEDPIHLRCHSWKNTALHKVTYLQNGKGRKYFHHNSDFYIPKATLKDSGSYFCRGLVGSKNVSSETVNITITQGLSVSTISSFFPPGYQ
Experimental: (§1) According to the following method, relative binding activities were calculated for the results of analyzing interactions with the respective FcγRs.

Row | relative binding activity | Binder
21 | 87 % of IL6R-BF648/IL6R-L | B21
22 | 118 % of IL6R-BF648/IL6R-L | B22
23 | 122 % of IL6R-BF648/IL6R-L | B23
24 | 221 % of IL6R-BF648/IL6R-L | B24

target: T1, human FcγRIIb; assay: as above
Experimental: as §1

Row | relative binding activity | Binder
25 | 136 % of IL6R-BF648/IL6R-L | B21
26 | 147 % of IL6R-BF648/IL6R-L | B25
27 | 178 % of IL6R-BF648/IL6R-L | B26
28 | 156 % of IL6R-BF648/IL6R-L | B27
29 | 179 % of IL6R-BF648/IL6R-L | B28

target: T2, human FcγRIIa type H; assay: as above
Experimental: as §1

Row | relative binding activity | Binder
30 | 106 % of IL6R-BF648/IL6R-L | B21
31 | 128 % of IL6R-BF648/IL6R-L | B25
32 | 548 % of IL6R-BF648/IL6R-L | B26
33 | 203 % of IL6R-BF648/IL6R-L | B27
34 | 224 % of IL6R-BF648/IL6R-L | B29
35 | 253 % of IL6R-BF648/IL6R-L | B22
36 | 259 % of IL6R-BF648/IL6R-L | B28
37 | 150 % of IL6R-BF648/IL6R-L | B23
38 | 621 % of IL6R-BF648/IL6R-L | B24

target: T6, human FcγRIa (human, UniProt P12314 16-292, limits assumed); assay: as above
T6 construct: also called FcgRIa; CD64
T6 sequence (P12314 16-292 limits assumed): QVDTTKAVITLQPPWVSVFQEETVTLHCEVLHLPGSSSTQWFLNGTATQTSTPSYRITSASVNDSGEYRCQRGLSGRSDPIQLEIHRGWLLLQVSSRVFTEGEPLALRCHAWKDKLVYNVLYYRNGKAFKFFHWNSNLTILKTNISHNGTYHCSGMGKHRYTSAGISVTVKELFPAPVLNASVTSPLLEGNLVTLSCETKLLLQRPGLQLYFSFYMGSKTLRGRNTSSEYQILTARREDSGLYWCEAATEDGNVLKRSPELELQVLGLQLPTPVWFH
Experimental: as §1

Row | relative binding activity | Binder
39 | 74 % of IL6R-BF648/IL6R-L | B21
40 | 102 % of IL6R-BF648/IL6R-L | B25
41 | 34 % of IL6R-BF648/IL6R-L | B26
42 | 104 % of IL6R-BF648/IL6R-L | B29
43 | 33 % of IL6R-BF648/IL6R-L | B22
44 | 51 % of IL6R-BF648/IL6R-L | B28
45 | 108 % of IL6R-BF648/IL6R-L | B23
46 | 39 % of IL6R-BF648/IL6R-L | B24

Target: T3, human FcγRIIa type R
Assay: as above
Experimental: as §1

Row | relative binding activity | Binder
47 | 126 % of IL6R-BF648/IL6R-L | B21
48 | 201 % of IL6R-BF648/IL6R-L | B25
49 | 638 % of IL6R-BF648/IL6R-L | B26
50 | 445 % of IL6R-BF648/IL6R-L | B27
51 | 272 % of IL6R-BF648/IL6R-L | B29
52 | 364 % of IL6R-BF648/IL6R-L | B22
53 | 653 % of IL6R-BF648/IL6R-L | B28
54 | 362 % of IL6R-BF648/IL6R-L | B23
55 | 705 % of IL6R-BF648/IL6R-L | B24
